Laboratory results taken from patent publication US20110293511A1, “SPECIFIC BINDING PROTEINS AND USES THEREOF” (priority 2009, published 2011).
Several values for one entry are separate records, joined by “and”; a condition that tells them apart may be missing. Equal values may be shown once. Entries after “also recorded” stand apart in the source; their conditions may differ.

Assays:
[1] = target: T1, biotinylated de2-7 specific peptide (Homo sapiens, UniProt P00533, DELINS30-297G); assay: ELISA on de2-7 junctional peptide; format: binding
T1 construct: purchased Auspep, Melbourne, Australia; host or cells: chemical synthesis (Fmoc)
Description: In the second assay, the biotinylated de2-7 specific peptide (Biotin […] (SEQ ID NO:5)) was bound to ELISA plates precoated with streptavidin (Pierce, Rockford, Ill.). Antibodies were bound and detected as in the first assay.

[2] = tested on: A431 xenografts; assay: s.c. xenograft therapy study; format: in vivo, nude mice; conditions: for mean tumor volume: day 13, 1 mg injection
Protocol: Tumor cells (3×10^6) in […] of PBS were inoculated subcutaneously into both flanks of 4-6 week old female nude mice (Animal Research Centre, Western Australia, Australia). […] Treatment was continued for a total of 6 doses, 3 times per week for 2 weeks. In the established model, treatment was started when tumors had reached a mean volume of 65±6.42 mm^3 (U87MG.Δ2-7), 84±9.07 mm3 (U87MG), 73±7.5 mm^3 (U87MG.wtEGFR) or 201±19.09 mm^3 (A431 tumors). Tumor volume in mm^3 was determined using the formula […], where length was the longest axis and width the measurement at right angles to the length (Clark et al. (2000) Therapeutic efficacy of anti-Lewis (y) humanized 3S 193 radioimmunotherapy in a breast cancer model: enhanced activity when combined with Taxol chemotherapy. Clin. Cancer Res. 6, 3621-3628). Data was expressed as mean tumor volume±S.E. for each treatment group. Statistical analysis was performed at given time points using Student's t-test. Animals were euthanized when the xenografts reached an approximate volume of 1.5 cm^3 and the tumors excised for histological examination. This research project was approved by the Animal Ethics Committee of the Austin and Repatriation Medical Centre.
AG1478 (4-(3-Chloroanilino)-6,7-dimethoxyquinazoline) is a potent and selective inhibitor of the EGFR kinase versus HER2-neu and platelet-derived growth factor receptor kinase (Calbiochem Cat. No. 658552). […] The results are illustrated in FIG. 12. […] 400 μg AG1478 was administered at 0, 2, 4, 7, 9, and 11 days post xenograft.
With respect to “(iv),” different groups of mice received either 0.5 mg/injection of each mAb, or 0.25 mg/injection of each mAb.
Finally, the fourth group of mice, which had been inoculated with A431 cells, received injections as in groups I and III, at 8, 10, 12 and 14 days after inoculation. At the start, the average tumor size was 71 mm^3.
To establish xenografts, mice were injected subcutaneously into the right and left inguinal mammary line with 1×10^6 A431 adenocarcinoma cells or 1×10^6 U87MG.de2-7 glioma cells in 100 μl of PBS. Tumor volume (TV) was calculated by the formula […] where length was the longest axis and width the measurement at right angles to length. […] Therapy was administered on days 6, 8, 11, 13, 15 and 18 for A431, and days 4, 6, 8, 11, 13 and 15 for the U87MG.de2-7 cell lines respectively. Mean±SEM tumor volumes until termination of the experiments due to ethical considerations of tumor burden are presented in FIG. 91 for the A431 xenograft until day 25, and in FIG. 92 for U87MG.de2-7 xenografts until day 31.

[3] = target: T2, EGFR of A431 cells (Homo sapiens, UniProt P00533); assay: ELISA of 806 reactivity in A431 lysate with AG1478; format: cell-based; conditions: AG1478 0.5 μM and 5 μM, 10 min at 37° C.
T2 construct: endogenous in cells; host or cells: A431 human squamous carcinoma cells
Protocol: Cells were placed in serum free media overnight, then treated with AG1478 for 10 min at 37° C., washed twice in PBS, then lysed in 1% Triton and lysates prepared by centrifugation for 10 min at 12,000 g. […] Plates were then blocked with 10% serum albumin/PBS for 2 hours at 37° C. and washed twice. A 1:20 cell lysate was added in 10% serum albumin/PBS for 1 hour at 37° C., then washed four times. Anti-EGFR(SC-03; Santa Cruz Biotechnology Inc.) in 10% serum albumin/PBS was reacted 90 min at room temperature, the plate washed four times, and anti-rabbit-HRP (1:2000 if from Silenus) in 10% serum albumin/PBS was added for 90 min at room temperature, washed four times, and color developed using ABTS as a substrate.

[4] = target: T3, deglycosylated sEGFR (Homo sapiens, UniProt P00533); assay: immunoblot of PNGase F treated sEGFR; format: binding
T3 construct: sEGFR is the recombinant extracellular domain (amino acids 1-621) of the wild-type EGFR); host or cells: CHO cells
Protocol: To determine if carbohydrate structures are directly involved in the mAb806 epitope, the recombinant sEGFR expressed in CHO cells was treated with PNGase F to remove N-linked glycosylation.

[5] = tested on: Ba/F3 cells expressing the wtEGFR; assay: MTT proliferation assay with EGF; format: cell-based, murine; conditions: antibody 10 μg/ml
Protocol: Cells growing in log phase were harvested and washed twice with PBS to remove residual IL-3. […] Proliferation was determined using the MTT assay (van de Loosdrecht et al. (1994) J. Immunol. Methods. 174, 311-320).

B1: mAb806: murine IgG2b monoclonal antibody, clone 806, ATCC PTA-3858; VH SEQ ID NO:2, VL SEQ ID NO:4 (antibody, listed as Mus musculus, V domains shown)
VH: MRVLILLWLFTAFPGVLSDVQLQESGPSLVKPSQSLSLTCTVTGYSITSDFAWNWIRQFPGNKLEWMGYISYSGNTRYNPSLKSRISITRDTSKNQFFLQLNSVTIEDTATYYCVTAGRGFPYWGQGTLVTVSA
VL: MVSTAQFLAFLLLWFPGARCDILMTQSPSSMSVSLGDTVSITCHSSQDINSNIGWLQQRPGKSFKGLIYHGTNLDDEVPSRFSGSGSGADYSLTISSLESEDFADYYCVQYAQFPWTFGGGTKLEIKR
binding to the unique de2-7 EGFR peptide [1]: Neither mAb806 or the 528 antibody bound to the peptide
mean tumor volume ([2]; established model): 451±65.58 mm^3 and 450±70 mm^3
effect on xenograft growth ([2]; preventative model, 0.1 mg): significantly inhibited; also recorded: inhibited significantly
reduction of tumor volume ([2]; preventative model, 0.1 mg mAb806, 400 μg AG1478): significant reduction of tumor volume
mean tumor volume ([2]; preventative model): 260±60.33 mm^3 and 260±60 mm^3
mAb806 binding in the presence of increasing amounts of AG1478 [3]: significantly increased
binding to deglycosylated sEGFR [4]: clearly bound
effect on EGF-induced proliferation [5]: no effect
